Laboratory results from a protein production outcome set (Wang et al. 2014).

Test: label from the status in PepcDB records

Sequence	protein production
MTPFTVDILIPIWNRPVETRNCLVTLMETTPSARLILIDNGSDRETERLLEEFSEILGERALFLKTSANQGFVRAVNRSLAQVEAPYAVVMQNTTLVTRGWLEPMVELADSRPDAGIIVPRLELEDGQGRRPKAAPPAGPVTEVSHGSFAASMVRRELVERQGGFDEELDGGPWCLRDYSRRAFRNGFLTLALDGAVVTYAEEVPLGSVARREETVRRSAETCRARWGREDAFCIYFPKDAEPEAVHGKLDVILRGARMGQCFTLILHPGLHKSLMETGHAPLHSNIALAPLPRFFATGEIRKIIGKLASVRGDTVTVAGVDGLSIPGVEGARSFSWLADEIRRRHESLYRPESPLEHHHHHH	not failed
MTPHATPAPRVSAIVSLYNAERFVRGCLDDLLGQTLADSLEIIVIDACSPQGEGAIVQDYMRDHPNIVYVRTDEREGVYASWNRGVRLARAPYVTNANADDRHREDALERLAAALDEAPEAGFAYGDCRVGQTENERYADNAGQRVMRFPDFFAPATLLYCQLGPQPLWRRSVHDVVGFFDESYRACADWDFDIRLAAAFRGIHVPDALGLYLEHEAAITFRDDTMTRENDRVQRQWQHPEAVEERYRAAGVPCHTAEERALVHFDMALRALRFYPPWCYGAPAHNPGFARRCLRHALRLAPALAPAKELLALPDAVLTALDDLPSPLGLPSQATLAGVAAPLEHHHHHH	failed
MTPIPLINIPLCNLAGDGYILSEKSQSQNMLRGIVMSETVRVGLLGYGYASKTFHAPLIAGTAGMELVAVSSSNAEKVHADWANLRVEKDPQALFSDPDIDLIVIPTPNDTHFPLAKQALEAGKHVVVDKPFTVTLSQAYDLGAIAERAGKVLSVFHNRRWDSDFLTLKQLLSAGTLGNVVYMESHFDRFRPEVRQRWREDGSEGSGIWYDLGPHLLDQALELFGLPVAIQVDMAQLRPGSKATDYFHATLIYPQRRVILHASMLVAAASARYTVHGTRGSFVKYGLDPQEDRLKAGERPPLADWGQDKHDGVLTLSRDGITAEQTIATIPGNYPAYYAAVRDALLGKGENPVGVNQAIQVMELIELGLLSHEQKKAVALKNSLEHHHHHH	failed
MTPLAEDFGAQGDAATRARWMALVEKTLKGQSFDDALTITTADGLTIQPLYTAEDGVAVARDLRARDTDRPWDLRMRAAHPDPIRAAKDVLTDLEGGAASVLLQIDPTGVNGVAIGSADDLGKALSGVLLDLAPVALDAGFLGPKAADWLGALAKAAPNAPLAFHLDPLTAFAQTGVSPGPIESHVFNAATVATRLSATYARASLFLATGRTAHEAGGSNVEELALMTAAALAYAKALVRSGLTIEEAFGRIALGVSLDGEYFTGVAKVRAAKALWARLTESCGVTVAPTIEARSSRRMLAKADAWTNLLRLTSAGFAGAVGGADAIVLDAFTDAIGLPTAFARRQARNTQLVLMEESHLGRVADPAGGAWYLDSLTDQLARAAWASFQAIEAAGGVIKALESGLVADAVAKSRTAQEAAYADKSRKILGVTVFPNADDKPPEVETPDSSAFAVQGPDVRLPGPDSHCPALTPVRFAAAFEGA	failed
MTPLLTAYLQAWKQYFDFSGQTTRDDFWWFMLAHLLITLVVVSIEIATNNPGWLDLFYSLISFIPMLAILVRRLHDTQRSGWWAWLFVIPVIGPFWLIYLLVQPSSSHFTDKALLS	failed
MTPNAPSTFNNMLLIAVFECRKFLFNLRGMIALIAFALVWGMLLLYPIQGASTLLMQPNIKDLIDGLFGNNALNVLFDWPVAEMAIFWCFALYLFPMFSILIAADQFSSDKTRGTLRFYTIRTSKDSLLFGRFLGQILIQGLLILLTILATIALALSRDASLLLPAISSGALVGVNLLIVILPFTAVMTLLSLYASTARQAMVLATILWTVVSIALLILGNESRLFEGLQWLLPGAQLSNMINTNGLNSLAYAPIPLLQTAIALFLGRIYFQRSQL	failed
MTPNEIAAKLSGLATKYHIRDVTLLAGRLLMSFIFLHEGVTLATHFDGAARAMAALGVGLPLFVATIALQLGAGLSVASGLLTRLGGIGLGLFCLATALLFHTNFASQNELLHFEKDLAISGGMFVLAAVGAGRFSLDWLLAGYLQKRQRDKEMARALLAVENQFSVDVQLPV	failed
MTPNNIVSRTEMDNGIQGFYKDKVVFLTGATGFLGKVIIEKLLRTTEVKRIYAMMRPKRGKDIQERLAIWQKDPLFEVLLKAKPDALKRIFVIAGDCLDPDLGINRSDRKLLVSEVHIVIHGAATVRFNEPLHVALAINTRGTRLMLQLAKEMLQLEAYLHISTAFSNCVIFRIEEKFYPEHLTCDANSVLAMSELLSEQMMDKLAPTLVGNFPNTYTYTKALAEDVVLREFGDLPLSIFRPSVIIATHEEPVSGWIDNLYGPIAHIYGVSHGVLRLTTYDKDGYASLVPVDYCANAALASIWQTSKDKSQRNAISQPAIYTLAPSEKNLLLNTDFIKHSLIHRNDFPLTKMIWYPFVHNISNPRIFPLAAFFYHTLPGYFYDLALRLSGRKPRLVKLYRSIHANIAVLEHFMNNSWHFETKSTDRLRVMMSPEDRRLYNFDMETLDWKEYFRKALFGMRLYLTKEPPTQESLEQGRRLFYRWLLIVDACQVIYLI	failed
MTPSAITLCFLIFAILMFALEKLPLAVTAMIVTVGLAVTGVLPAKEAFLGFVDTNVILFVAMFVIGGALFETGMANKIGGVVSRFAKSERQLMVVLMLITGLMSGILSNTGTSAILIPVILGIAMKSDFARSRLLMPMAFASTLGGNLSLIGSPNNLVVQGVLSQTGLKFGFFEYAKIGLPLLIVGILYFVFIGYRFLPQTLNTHVKKQDYHAFHHHHNIIPKWKQWLSLCVLIATLFAMVFEEVIGIKLYISACIGALILVIMRVITEKQAYQAIDSQVVFLFAGTLALADALKRTGAGADIAHSILSLLGDHPSTTALLLTILLLSCLLTNFMSNTATAALLAPIGLSIANSLNADPRAVLMAVVIGSSCAFATPIATPANTMILSVGQYKFTDYTKAGIPLIIISVLLSMLLLPIFFPLFL	failed
MTPVQLKNYLEQLVGNQIKTSTMIWGPPGIGKSSIVAQIAEEGKLRFIDLRLSQLAPTDLRGLPVAIPTSKTKPQTGTSAWYPPEFLPKDGAGILFLDELNMAPPAMQGVAQQLILDRRVGSYEVPTDWFIWAAGNRKEDRASVFEMPAPLANRFLHLDVQPDFESFKQYALEQKYHEQVIAFLSFRPGLIHKLDLQRPAWPSPRSWAIANGLHQVNLDVSPAVGEGCAAEFSAFVQLYKDLPDLEAIFRGQGQNIGFPTEPSSGYASTIGLAVRAKDATAGVNAFHWLTDKADSEWVQLFVTDMAGQLRRAGHLGALSIMAKKEPKLKQFMQGYQELLAILEHHHHHH	not failed
MTQMRFTEEDFNTFTIEGLDARMEVLKETVRPKLTALGEHFAPTLSALTGDEMFPHVAKHARRSVNPPADSWVAFANSKRGYKKLPHFQIGLWESHVFVWFAIIYESPIKEEYGKLLEVNQETITKNIPDSFVWSADHTKPGVHKQSEMDKEQLKTLFERLQTVKKAELLCGIQLQKEEVLNMNNQEFLQRIDDAFKQLAFLYRLTQKVTQALEHHHHHH	not failed
MTQPELTPAQRTEVELLARGRADKSRVLRDLKLPETPEAAHALLLRLGVWDEARTPYADRLRAALNAVELPVPDFDPAEERLDLTHLPTFAIDDEGNQDPDDAVGVEDLGGGLTRLWVHVADVAALVAPDSPLDLEARARGATLYLPDRTIGMLPDELVAKAGLGLHEVSPALSICLDLDPDGNAEAVDVLLTRVKVQRLAYQEAQARLEAGEEPFVTLARLARASRRLREGEGALSIDLPEVRVKADETGASVFPLPKPEMRTVVQECMTLAGWGTAIFADDNEIPLPFATQDYPTREVAGDTLPAMWARRKTLARTRFQPSPGPHHGMGLDLYAQATSPMRRYLDLVVHQQLRAFLAGRDPLSSKVMAAHIAESQMNADATRQAERLSRRHHTLRFIAAQPERVWDAVVVDRRGAQATLLIPDLAFDVQVNTPAAPGTALQVQFADIDLPQMRVRARSVLEHHHHHH	not failed
MTQPHQIILLAHGSSDARWCETFEKLAEPTVESIENAAIAYMELAEPSLDTIVNRAKGQGVEQFTVVPLFLAAGRHLRKDVPAMIERLEAEHGVTIRLAEPIGKNPRLGLAIRDVVKEELERSEH	not failed
